According to patent publication US20210324359A1, “USE OF GRAM-NEGATIVE LYSIN-ANTIMICROBIAL PEPTIDE (AMP) POLYPEPTIDE CONSTRUCTS IN TREATING ENDOCARDITIS” (priority 2020, published 2021):

Legend:
[1] = tested on: P. aeruginosa strain PA453; test: Time-kill assay of GN370 in animal blood (Table 34); format: cell-based, Pseudomonas aeruginosa; conditions: for Log10 CFU/mL of P. aeruginosa: limit of detection 1.6
Excerpt: The results are shown below in Table 34, wherein survival is reported as Log10 CFU/mL and wherein the limit of detection was 1.6 Log10 CFU/mL.

P. aeruginosa (PA20) = test: Rabbit infective endocarditis model (Tables 28-32, FIGS. 5-8); format: in vivo, Pseudomonas aeruginosa in rabbits
Experimental: Initially, a polyethylene catheter was placed into the rabbits' right ventricle and secured. 48 hours after catheter placement, rabbits were infected intravenously with P. aeruginosa (PA20) (6×10^9 CFU/mL). Treatment commenced 24 hours post-infection.
Data were analyzed using the Kruskal-Wallis method for multiple comparison and then adjusted with a false discovery rate approach (Benjamini-Hochberg method), using StatsDirect Software. A p-value of <0.05 was considered statistically significant.

P. aeruginosa = test: MIC, modified CLSI broth microdilution in CAA medium without or with […] human serum (Table 4); format: cell-based, Pseudomonas aeruginosa; on CAA/HuS MIC: CAA supplemented with 2.5% human serum
Excerpt: 2015. […] Clinical and Laboratory Standards Institute, Wayne, Pa.

[2] = tested on: Pseudomonas aeruginosa strain CFS-1292 (meropenem resistant); test: MIC in 25% CAA alone, with […] human serum or […] SURVANTA (Table 13); format: cell-based
Experimental: Materials and methods: MICs were determined by broth microdilution in media supplemented with human serum and pulmonary surfactant ([…]®; Myoderm Clinical Supplies). Minimal biofilm eradicating concentrations (MBECs) were determined using standard methods. […] Fluorescence microscopy was performed after LIVE/DEAD staining (ThermoFisher) and TEM was performed.

[3] = single dose of GN370 + meropenem

B1: GN370: lysin-AMP construct: MIDR, FIRL and NPTH moieties N-terminal to GN202 lysin (SEQ ID NO: 44) (protein)
chain: MIDRFIRLNPTHGPRRPRRPGRRAPVRTSQRGIDLIKSFEGLRLSAYQDSVGVWTIGYGTTRGVTRYMTITVEQAERMLSNDIQRFEPELDRLAKVPLNQNQWDALMSFVYNLGAANLASSTLLDLLNKGDYQGAADQFPHWVNAGGKRLDGLVKRRAAERALFLEPLS
[1]; Human blood, 24 hours, GN370 100 μg/mL
  Log10 CFU/mL of P. aeruginosa: 1.6 Log10 CFU/mL
[1]; Human blood, 24 hours, GN370 200 μg/mL
  Log10 CFU/mL of P. aeruginosa: 1.6 Log10 CFU/mL
[1]; Rabbit blood, 2 hours, GN370 4 μg/mL
  Log10 CFU/mL of P. aeruginosa: 1.6 Log10 CFU/mL
[1]; Rabbit blood, 2 hours, GN370 20 μg/mL
  Log10 CFU/mL of P. aeruginosa: 1.6 Log10 CFU/mL
[1]; Rabbit blood, 2 hours, GN370 50 μg/mL
  Log10 CFU/mL of P. aeruginosa: 1.6 Log10 CFU/mL
[1]; Rabbit blood, 2 hours, GN370 100 μg/mL
  Log10 CFU/mL of P. aeruginosa: 1.6 Log10 CFU/mL
[1]; Rabbit blood, 2 hours, GN370 200 μg/mL
  Log10 CFU/mL of P. aeruginosa: 1.6 Log10 CFU/mL
[1]; Rabbit blood, 4 hours, GN370 4 μg/mL
  Log10 CFU/mL of P. aeruginosa: 3.0 Log10 CFU/mL
[1]; Rabbit blood, 4 hours, GN370 20 μg/mL
  Log10 CFU/mL of P. aeruginosa: 1.6 Log10 CFU/mL
[1]; Rabbit blood, 4 hours, GN370 50 μg/mL
  Log10 CFU/mL of P. aeruginosa: 1.6 Log10 CFU/mL
[1]; Rabbit blood, 4 hours, GN370 100 μg/mL
  Log10 CFU/mL of P. aeruginosa: 1.6 Log10 CFU/mL
[1]; Rabbit blood, 4 hours, GN370 200 μg/mL
  Log10 CFU/mL of P. aeruginosa: 1.6 Log10 CFU/mL
[1]; Rabbit blood, 24 hours, GN370 4 μg/mL
  Log10 CFU/mL of P. aeruginosa: 4.9 Log10 CFU/mL
[1]; Rabbit blood, 24 hours, GN370 20 μg/mL
  Log10 CFU/mL of P. aeruginosa: 1.6 Log10 CFU/mL
[1]; Rabbit blood, 24 hours, GN370 50 μg/mL
  Log10 CFU/mL of P. aeruginosa: 1.6 Log10 CFU/mL
[1]; Rabbit blood, 24 hours, GN370 100 μg/mL
  Log10 CFU/mL of P. aeruginosa: 1.6 Log10 CFU/mL
[1]; Rabbit blood, 24 hours, GN370 200 μg/mL
  Log10 CFU/mL of P. aeruginosa: 1.6 Log10 CFU/mL
[1]; Rat blood, 2 hours, GN370 4 μg/mL
  Log10 CFU/mL of P. aeruginosa: 5.9 Log10 CFU/mL
[1]; Rat blood, 2 hours, GN370 20 μg/mL
  Log10 CFU/mL of P. aeruginosa: 6.1 Log10 CFU/mL
[1]; Rat blood, 2 hours, GN370 50 μg/mL
  Log10 CFU/mL of P. aeruginosa: 1.6 Log10 CFU/mL
[1]; Rat blood, 2 hours, GN370 100 μg/mL
  Log10 CFU/mL of P. aeruginosa: 1.6 Log10 CFU/mL
[1]; Rat blood, 2 hours, GN370 200 μg/mL
  Log10 CFU/mL of P. aeruginosa: 1.6 Log10 CFU/mL
[1]; Rat blood, 4 hours, GN370 4 μg/mL
  Log10 CFU/mL of P. aeruginosa: 7.0 Log10 CFU/mL
[1]; Rat blood, 4 hours, GN370 20 μg/mL
  Log10 CFU/mL of P. aeruginosa: 6.2 Log10 CFU/mL
[1]; Rat blood, 4 hours, GN370 50 μg/mL
  Log10 CFU/mL of P. aeruginosa: 3.7 Log10 CFU/mL
[1]; Rat blood, 4 hours, GN370 100 μg/mL
  Log10 CFU/mL of P. aeruginosa: 1.6 Log10 CFU/mL
[1]; Rat blood, 4 hours, GN370 200 μg/mL
  Log10 CFU/mL of P. aeruginosa: 1.6 Log10 CFU/mL
[1]; Rat blood, 24 hours, GN370 4 μg/mL
  Log10 CFU/mL of P. aeruginosa: 7.9 Log10 CFU/mL
[1]; Rat blood, 24 hours, GN370 20 μg/mL
  Log10 CFU/mL of P. aeruginosa: 7.8 Log10 CFU/mL
[1]; Rat blood, 24 hours, GN370 50 μg/mL
  Log10 CFU/mL of P. aeruginosa: 7.6 Log10 CFU/mL
[1]; Rat blood, 24 hours, GN370 100 μg/mL
  Log10 CFU/mL of P. aeruginosa: 3.6 Log10 CFU/mL
[1]; Rat blood, 24 hours, GN370 200 μg/mL
  Log10 CFU/mL of P. aeruginosa: 1.6 Log10 CFU/mL
[1]; all times, 20-200 μg/mL, strain PA453
  activity in dog, human, and rabbit blood (time-kill): high activity
[1]; majority of the times and concentrations tested, strain PA453
  activity in rat blood (time-kill): poor or no activity
P. aeruginosa (PA20); meropenem + 3 mg/kg GN370
  change of cardiac vegetations counts vs untreated controls: −1.3 log10 CFU/g
  change of cardiac vegetations counts vs vehicle-treated controls: −0.8 log10 CFU/g
P. aeruginosa (PA20); meropenem + 10 mg/kg GN370
  change of cardiac vegetations counts vs untreated controls: −1.1 log10 CFU/g
  change of cardiac vegetations counts vs vehicle-treated controls: −0.5 log10 CFU/g
P. aeruginosa (PA20); meropenem + GN370 at all doses
  P. aeruginosa densities in kidney, spleen and lung vs meropenem alone: −0.6 to−2.2 log10 CFU/g
  P. aeruginosa densities in kidney, spleen and lung vs untreated control: −2.0 to−3.6 log10 CFU/g
  P. aeruginosa densities in kidney, spleen and lung vs vehicle: −1.7 to−3.2 log10 CFU/g
P. aeruginosa (PA20); [3]
  CFU reduction in cardiac vegetation tissues: about 1 log kill
  CFU reduction in kidney, spleen and lung tissues: about 3 log kill
P. aeruginosa (PA20); three days of GN370 at 10 mg/kg + 5 mg/kg meropenem, compared to both the start of treatment and a vehicle control
  CFU reduction in cardiac vegetations: > 2 log CFU
P. aeruginosa; CAA medium, no human serum
  CAA MIC: 16000 µg/mL
P. aeruginosa; CAA supplemented with […] human serum
  CAA/HuS MIC: 4000 µg/mL
[2]
  MIC in […] Survanta: 2 µg/mL
  MIC in human serum ([…]) in CAA: 2 µg/mL
  activity in human serum and pulmonary surfactant: active in human serum and pulmonary surfactant
[2]; media alone
  25% CAA MIC: 4
